From PMC12691818

Legend:
[1] = target: PfPP1c (Plasmodium falciparum Protein Phosphatase 1 catalytic subunit, recombinant) (Plasmodium falciparum) (UniProt Q8ILV1)
[2] = target: Xenopus laevis PP1c (XePP1c) (Xenopus laevis (endogenous in oocytes))
[3] = target: Xenopus laevis PP1c (XePP1c) (Xenopus laevis (endogenous in oocytes)); remark: listed apart in the source
[4] = target: Xenopus laevis PP1c (XePP1c) (Xenopus laevis (endogenous in oocytes)); remark: listed apart in the source

Substance “PfI2 (inhibitor of PP1c, Plasmodium falciparum) (natural protein)” has a PfPP1c phosphatase activity on pNPP; 37.5 to 600 pmol PfI2 with 1 µg PfPP1c; value at 600 pmol [1] of 60%.
For “PbRpt3-30 kDa (recombinant truncated PbRpt3, aa 131-395) (domain or fragment)”, the PfPP1c phosphatase activity on pNPP; 37.5 to 600 pmol PbRpt3-30 kDa preincubated with 1 µg PfPP1c; value at 600 pmol (% PP1c activity) [1] was over 400.
“HA-tagged PbRpt3 protein (full-size 45 kDa native PbRpt3 translated from microinjected cRNA in Xenopus oocytes) (from UniProt A0A509AIQ8 1-395) (natural protein)” showed a percentage of GVBD of progesterone-treated Xenopus oocytes microinjected with PbRpt3 cRNA (control 80%) [2] of 1.7 % GVBD and a percentage of GVBD of progesterone-treated Xenopus oocytes microinjected with PbRpt3 cRNA (PG alone 86.7%) [3] of 1.7 % GVBD.
In the case of “PbRpt3-RKAEA (HA-tagged PbRpt3 mutated 305-RKIEF-309 to 305-RKAEA-309) (natural protein)”, the percentage of GVBD of progesterone-treated Xenopus oocytes microinjected with PbRpt3-RKAEA cRNA (control 80%) [2] is reported as 23.3 % GVBD.
“PbRpt3-KATA (HA-tagged PbRpt3 mutated 200-KVTF-203 to 200-KATA-203) (natural protein)” showed a percentage of GVBD of progesterone-treated Xenopus oocytes microinjected with PbRpt3-KATA cRNA (control 80%) [2] of 26.6 % GVBD.
For “PbRpt3 ATP-binding site mutant (HA-tagged PbRpt3 substituted for alanines in positions K188, D241, N288 and Q356) (natural protein)”, the percentage of GVBD of progesterone-treated Xenopus oocytes microinjected with PbRpt3 cRNA mutated for the ATP-binding sites (PbRpt3 1.7%, PG-treated oocytes 80.8%) [4] was 39.2 % GVBD.
Substance “PbRpt3-KATA/RKAEA (HA-tagged PbRpt3 with both RVxF motifs mutated) (natural protein)” has a percentage of GVBD of progesterone-treated Xenopus oocytes microinjected with PbRpt3-KATA/RKAEA cRNA (control 80%) [2] of 76 % GVBD.
